Laboratory results from article PMC3929611 (2014).
One block for each binder: values may come before it. Primed or numbered codes have the meaning given here. Ends that are not written are not given here. FITC′ = fluorescein isothiocyanate

How the values were obtained:
FITC-labeled α1 peptide = target: T1, FITC-labeled α1 peptide (rat); assay: FP
T1 peptide: {FITC′}-QPSQDELKDNTTVFT

FITC-labeled β2 peptide = target: T2, FITC-labeled β2 peptide (rat, UniProt P63138); assay: FP
T2 peptide: {FITC′}-MWRVRKRGYFGIWSFPLII

Kd (FITC-labeled α1 peptide): 3000 nM
B1: A10 scFv (anti-α1 subunit-specific scFv), soluble protein (scFv, V domains shown)
VH: EVQLVQSGAEVKKPGASVKVSCKASGYTFTSYYMHWVRQAPGQGLEWMGIINPSGGSTSYAQKFQGRVTMTRDTSTSTVYMELSSLRSEDTAVYYCARDGWGGSSFLDYWGQGTLVTVSS
VL: SYELTQPPSVSVSPGQTARITCSGDALPKKYAYWYQQKSGQAPVLVIYEDSKRPSGIPERFSGSSSGTMATLTISGAQVEDEADYYCYSKDNTGYQMVFGGGTKLTVL

Kd (FITC-labeled β2 peptide): 820 nM
B2: G8 scFv (anti-β2 subunit scFv), soluble protein (scFv, V domains shown)
VH: EVQLVQSGAEVKKPGATVKISCKVSGYTFTDYYMHWVQQAPGKGLEWMGLVDPEDGETIYAEKFQGRVTITADTSTDTAYMELSSLRSEDTAVYYCATTPPHDYYDSSGLDYWGQGTLVTVSS
VL: DIQMTQSPSSVSASVGDRVTITCRASQGINRWLAWYQQKPGKAPKLLIYAASNLQSGVPSRFSGSGSGTDFSLTISSLQPEDFATYYCQQSYSPPSTFGGGTKLEIK
